Laboratory results: US12186353B2, “Method of reducing neuronal microtubule binding protein Tau (Tau) levels” (ADAERATA, LIMITED PARTNERSHIP, priority 2018, dated 2025)

Legend:
Tau [1] = test: Dot blot of monomeric and oligomeric Tau in the media of HEK293T cells expressing Tau; type: cell-based; details: media collected 24 h after doxycycline, vs GFP control
Method: FIGS. 9A-B: Numb72 stimulates secretion of the monomeric form of Tau in the extracellular media in cell lines, but not oligomeric (toxic) Tau. FIG. 9A. Dot blot of monomeric Tau levels (5A6) and oligomer of Tau (T22) in the media of HEK293T stable inducible cells line expressing Tau transfected with either GFP (Control) or Numb72. Tau expression was activated by adding Doxycycline 6 h after transfection and the media collected 24 h later for Dot-blot. FIG. 9B. Quantification of extracellular Tau levels; data are mean±SEM, n.s non-significant; *p<0.05. Student's t test, n=6 for Tau5A6 and n=4 for T22.
The impact of Numb on the secretion of monomeric and oligomeric Tau was assessed. A cell line (HEK293T) expressing Tau was transfected with either GFP (Control) or Numb72, and the monomeric Tau (5A6) and oligomeric Tau (T22) levels were assessed in the cell media by dot blot assay on the collected culture medium.

Tau [2] = test: Western blot of Tau fusion protein levels in HEK293T cells co-expressing Numb isoforms; type: cell-based; details: 48 hours after transfection
Text: FIGS. 6A-I: Isoform Numb-72 interacts with Tau and regulates Tau level. FIG. 6A. Schematic of 4 Numb isoforms, differing with the presence or the absence of an insertion (arrowhead) in PTB domain arrowhead, and the presence or the absence of an insertion in the proline-rich region (PRR). FIG. 6B. Coimmunoprecipitation of Tau and 4 isoforms of Numb in HEK293 cells. Each Numb isoform was transfected in HEK293T cells together with a flag-tagged version of Tau and immunoprecipitation was perform 24 hours later with a flag antibody and blotted for Numb. […] FIG. 6C. Detection of Tau::GFP level in presence of 4 isoforms of Numb by western blot in HEK293. All the Numb isoforms were transfected with a Tau::GFP fusion protein in HEK293T cells and the levels of Tau::GFP was analysed by western blot 48 hours after transfection. FIG. 6D. Schematic representation of DNA construct of a human-medulloblastoma-derived cell line (DAOY) expressing human Tau fused with EGFP (Lasagna-Reeves et al., 2016). Additionally, this cell line expresses DsRed upstream of an internal ribosomal entry site (IRES), which is translated independently of the Tau-GFP protein. DsRed-IRES-Tau::EGFP expressing cells were used to assess the abundance of Tau by monitoring the Tau-GFP to DsRed fluorescence ratio. FIG. 6E. DsRed and Tau::EGF expression in Daoy cells, transfected with Myc only construct. FIGS. 6F-J. Fluorescence-activated cell sorting (FACs) analysis of the 4 Numb isoforms affected 3 days after transfection on ratio DsRed versus DsRed and GFP-positives cells compared to the control (Myc-Tag). FIG. 6K Quantification represents fold change for 5 experiments, +/− SEM, **p≤0.001; n.s. non-significant Anova 1-way test.
Numb72::Myc. HEK293T cells were transfected with Jet Prime using the following constructs Tau::Flag, Tau::GFP, Numb65, Numb66, Numb71 and Numb72.
Cells were harvested, and lysed in a NP-40 buffer (50 mm TRIS, pH 8.0, 150 mm NaCl, 1.0% NP-40 with Complete Protease Inhibitor Cocktail (Roche)). For immunoblotting, 40 μg of protein samples for in vivo blot and 10 ug for in vitro blot were loaded on a 10% acrylamide SDS-PAGE gels for separation by electrophoresis migration and then transferred onto PVDF membranes using transblot machine (Millipore). […] The primary antibody was detected with an HRP-conjugated goat anti-rabbit (1:10,000; Jackson Immunoresearch) in 0.5% dry milk in TBST. […]
To determine whether increasing the levels of Numb could affect the levels of Tau, the inventors co-expressed all isoforms of Numb together with a Tau::Venus fusion protein in HEK293T cells and analyzed the levels of Tau::Venus by western blot 48 hours after transfection.

B1: Numb-72: 72 kDa Numb isoform with long PTB domain and long PRR; human isoform 1 (SEQ ID NO: 1); expressed by transfection (protein)
chain: MNKLRQSFRRKKDVYVPEASRPHQWQTDEEGVRTGKCSFPVKYLGHVEVDESRGMHICEDAVKRLKAERKFFKGFFGKTGKKAVKAVLWVSADGLRVVDEKTKDLIVDQTIEKVSFCAPDRNFDRAFSYICRDGTTRRWICHCFMAVKDTGERLSHAVGCAFAACLERKQKREKECGVTATFDASRTTFTREGSFRVTTATEQAEREEIMKQMQDAKKAETDKIVVGSSVAPGNTAPSPSSPTSPTSDATTSLEMNNPHAIPRRHAPIEQLARQGSFRGFPALSQKMSPFKRQLSLRINELPSTMQRKTDFPIKNAVPEVEGEAESISSLCSQITNAFSTPEDPFSSAPMTKPVTVVAPQSPTFQANGTDSAFHVLAKPAHTALAPVAMPVRETNPWAHAPDAANKEIAATCSGTEWGQSSGAASPGLFQAGHRRTPSEADRWLEEVSKSVRAQQPQASAAPLQPVLQPPPPTAISQPASPFQGNAFLTSQPVPVGVVPALQPAFVPAQSYPVANGMPYPAPNVPVVGITPSQMVANVFGTAGHPQAAHPHQSPSLVRQQTFPHYEASSATTSPFFKPPAQHLNGSAAFNGVDDGRLASADRHTEVPTGTCPVDPFEAQWAALENKSKQRTNPSPTNPFSSDLQKTFEIEL
modifications: homo sapiens
notes: 72 kDa Numb isoform with long PTB domain and long PRR; expressed by transfection
In the case of B1, the “secretion of monomeric Tau (5A6) in the cell media” value (Tau [1]) is reported as “stimulates the secretion of monomeric Tau”, the “secretion of oligomeric Tau (T22) in the cell media” value (Tau [1]) is reported as “not of toxic (oligomeric) Tau” and the “levels of Tau::Venus by western blot” value (Tau [2]) is reported as “significantly reduced the levels of Tau”.
